Measured values reported in publication PMC3725419, “Structural insights into the activation of MST3 by MO25” (Biochemical and Biophysical Research Communications, 2013).

Target: T1, full length MO25β (human, UniProt Q9H9S4 1-337)
T1 construct: MO25β (mouse protein-25 beta), full length; plasmids are in the supplementary section; also called mouse protein-25 beta; source: E. coli BL21 (DE3) with pRARE2, purified (Glutathione-Sepharose, eluted with Prescission protease)
T1 sequence (looked up): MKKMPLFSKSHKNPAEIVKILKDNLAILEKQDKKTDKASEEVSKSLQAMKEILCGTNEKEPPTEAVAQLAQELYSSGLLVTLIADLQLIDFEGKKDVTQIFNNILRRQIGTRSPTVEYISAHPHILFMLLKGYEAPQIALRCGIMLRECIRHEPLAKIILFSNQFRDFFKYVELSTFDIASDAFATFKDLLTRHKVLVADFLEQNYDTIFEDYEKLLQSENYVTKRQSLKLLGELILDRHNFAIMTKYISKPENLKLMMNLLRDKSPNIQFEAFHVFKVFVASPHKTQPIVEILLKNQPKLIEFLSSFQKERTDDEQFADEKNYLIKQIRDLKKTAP
Test: crystal structure; MST3 (19-289) and MO25β mixed in an equimolar ratio, complex isolated on an S200 gel filtration column (20 mM Tris pH 7.5, 200 mM NaCl, 0.5 mM TCEP); sitting drop at 4 °C; two MST3:MO25β complexes in the asymmetric unit; no ATP or inhibitor
Conditions: both partners purified

B1: MST3 catalytic fragment (residues 19–289) (domain or fragment)
chain: not shown
notes: numbers count on: isoform b (NCBI NP_001027467.2); plasmids are described in the supplementary section; also called MST3 catalytic domain; source: E. coli BL21 (DE3) with pRARE2, purified (Ni-Sepharose, S200 gel filtration)
binding result: binds
